# Measured values published in US20220251595A1, “ENGINEERED ATRLP23 PATTERN RECOGNITION RECEPTORS AND METHODS OF USE” (priority 2019, published 2022).
# B1: AtRLP23-AtEFR-3×FLAG: AtRLP23 apoplastic and eJM domains, AtEFR TM and cytoplasmic domains, 3×FLAG; SEQ ID NO: 17, 18 (protein)
# chain: MSKALLHLHFLSLFLLCCVCHSSIFTLNFHFTGIVACRPHQIQAFTKFTNEFDTRGCNNSDTFNGVWCDNSTGAVAVLQLRKCLSGTLKSNSSLFGFHQLRYVDLQNNNLTSSSLPSGFGNLKRLEGLFLSSNGFLGQVPSSFSNLTMLAQLDLSYNKLTGSFPLVRGLRKLIVLDLSYNHFSGTLNPNSSLFELHQLRYLNLAFNNFSSSLPSKFGNLHRLENLILSSNGFSGQVPSTISNLTRLTKLYLDQNKLTSSFPLVQNLTNLYELDLSYNKFFGVIPSSLLTLPFLAHLALRENNLAGSVEVSNSSTSSRLEIMYLGSNHFEGQILEPISKLINLKHLDLSFLNTSYPIDLKLFSSLKSLRSLDLSGNSISSASLSSDSYIPLTLEMLTLRHCDINEFPNILKTLKELVYIDISNNRMKGKIPEWLWSLPLLQSVTLGNNYFTGFQGSAEILVNSSVLLLYLDSNNFEGALPDLPLSIKGFGVASNSFTSEIPLSICNRSSLAAIDLSYNNFTGPIPPCLRNLELVYLRNNNLEGSIPDALCDGASLRTLDVSHNRLTGKLPRSFVNCSSLKFLSVINNRIEDTFPFWLKALPNLQVLTLRSNRFYGPISPPHQGPLGFPELRIFEISDNKFTGSLPPNYFVNWKASSRTMNQDGGLYMVYEEKLFDEGGYGYTDALDLQYKGLHMEQAKALTSYAAIDFSGNRLEGQIPESIGLLKALIAVNISNNAFTGHIPLSMANLENLESLDMSRNQLSGTIPNGLGSISFLAYINVSHNQLTGEIPQGTQITGQSKSSFEGNAGLCGLPLKESCFGTGAPPMYHQKQEDKEEEEEEEEEEEEVLNGRVVSGICIGIASLLLIIIVASLCWFMKRKKKNNASDGNPSDSTTLGMFHEKVSYEELHSATSRFSSTNLIGSGNFGNVFKGLLGPENKLVAVKVLNLLKHGATKSFMAECETFKGIRHRNLVKLITVCSSLDSEGNDFRALVYEFMPKGSLDMWLQLEDLERVNDHSRSLTPAEKLNIAIDVASALEYLHVHCHDPVAHCDIKPSNILLDDDLTAHVSDFGLAQLLYKYDRESFLNQFSSAGVRGTIGYAAPEYGMGGQPSIQGDVYSFGILLLEMFSGKKPTDESFAGDYNLHSYTKSILSGCTSSGGSNAIDEGLRLVLQVGIKCSEEYPRDRMRTDEAVRELISIRSKFFSSKTTITESPRDAPQSSPQEWMLNTDMHTMASDYKDHDGDYKDHDLDAAAADYKDDDDK
# modifications: Fusion protein
# B2: AtRLP23-AtPEPR1-3×FLAG: AtRLP23 apoplastic and eJM domains, AtPEPR1 TM and kinase domains, 3×FLAG; SEQ ID NO: 572, 573 (protein)
# chain: MSKALLHLHFLSLFLLCCVCHSSIFTLNFHFTGIVACRPHQIQAFTKFTNEFDTRGCNNSDTFNGVWCDNSTGAVAVLQLRKCLSGTLKSNSSLFGFHQLRYVDLQNNNLTSSSLPSGFGNLKRLEGLFLSSNGFLGQVPSSFSNLTMLAQLDLSYNKLTGSFPLVRGLRKLIVLDLSYNHFSGTLNPNSSLFELHQLRYLNLAFNNFSSSLPSKFGNLHRLENLILSSNGFSGQVPSTISNLTRLTKLYLDQNKLTSSFPLVQNLTNLYELDLSYNKFFGVIPSSLLTLPFLAHLALRENNLAGSVEVSNSSTSSRLEIMYLGSNHFEGQILEPISKLINLKHLDLSFLNTSYPIDLKLFSSLKSLRSLDLSGNSISSASLSSDSYIPLTLEMLTLRHCDINEFPNILKTLKELVYIDISNNRMKGKIPEWLWSLPLLQSVTLGNNYFTGFQGSAEILVNSSVLLLYLDSNNFEGALPDLPLSIKGFGVASNSFTSEIPLSICNRSSLAAIDLSYNNFTGPIPPCLRNLELVYLRNNNLEGSIPDALCDGASLRTLDVSHNRLTGKLPRSFVNCSSLKFLSVINNRIEDTFPFWLKALPNLQVLTLRSNRFYGPISPPHQGPLGFPELRIFEISDNKFTGSLPPNYFVNWKASSRTMNQDGGLYMVYEEKLFDEGGYGYTDALDLQYKGLHMEQAKALTSYAAIDFSGNRLEGQIPESIGLLKALIAVNISNNAFTGHIPLSMANLENLESLDMSRNQLSGTIPNGLGSISFLAYINVSHNQLTGEIPQGTQITGQSKSSFEGNAGLCGLPLKESCFGTGAPPMYHQKQEDKEEEEEEEEEEEEVLNGRIVLIAVLSSLLVLVVVLALVFICLRRRKGRPEKDAYVFTQEEGPSLLLNKVLAATDNLNEKYTIGRGAHGIVYRASLGSGKVYAVKRLVFASHIRANQSMMREIDTIGKVRHRNLIKLEGFWLRKDDGLMLYRYMPKGSLYDVLHGVSPKENVLDWSARYNVALGVAHGLAYLHYDCHPPIVHRDIKPENILMDSDLEPHIGDFGLARLLDDSTVSTATVTGTTGYIAPENAFKTVRGRESDVYSYGVVLLELVTRKRAVDKSFPESTDIVSWVRSALSSSNNNVEDMVTTIVDPILVDELLDSSLREQVMQVTELALSCTQQDPAMRPTMRDAVKLLEDVKHLARSCSSDSVRSDYKDHDGDYKDHDLDAAAADYKDDDDK
# modifications: Fusion protein
# B3: AtRLP23+TM-AtSOBIR1-3×FLAG: AtRLP23 apoplastic, eJM and TM domains, AtSOBIR1 cytoplasmic domain, 3×FLAG; SEQ ID NO: 41, 42 (protein)
# chain: MSKALLHLHFLSLFLLCCVCHSSIFTLNFHFTGIVACRPHQIQAFTKFTNEFDTRGCNNSDTFNGVWCDNSTGAVAVLQLRKCLSGTLKSNSSLFGFHQLRYVDLQNNNLTSSSLPSGFGNLKRLEGLFLSSNGFLGQVPSSFSNLTMLAQLDLSYNKLTGSFPLVRGLRKLIVLDLSYNHFSGTLNPNSSLFELHQLRYLNLAFNNFSSSLPSKFGNLHRLENLILSSNGFSGQVPSTISNLTRLTKLYLDQNKLTSSFPLVQNLTNLYELDLSYNKFFGVIPSSLLTLPFLAHLALRENNLAGSVEVSNSSTSSRLEIMYLGSNHFEGQILEPISKLINLKHLDLSFLNTSYPIDLKLFSSLKSLRSLDLSGNSISSASLSSDSYIPLTLEMLTLRHCDINEFPNILKTLKELVYIDISNNRMKGKIPEWLWSLPLLQSVTLGNNYFTGFQGSAEILVNSSVLLLYLDSNNFEGALPDLPLSIKGFGVASNSFTSEIPLSICNRSSLAAIDLSYNNFTGPIPPCLRNLELVYLRNNNLEGSIPDALCDGASLRTLDVSHNRLTGKLPRSFVNCSSLKFLSVINNRIEDTFPFWLKALPNLQVLTLRSNRFYGPISPPHQGPLGFPELRIFEISDNKFTGSLPPNYFVNWKASSRTMNQDGGLYMVYEEKLFDEGGYGYTDALDLQYKGLHMEQAKALTSYAAIDFSGNRLEGQIPESIGLLKALIAVNISNNAFTGHIPLSMANLENLESLDMSRNQLSGTIPNGLGSISFLAYINVSHNQLTGEIPQGTQITGQSKSSFEGNAGLCGLPLKESCFGTGAPPMYHQKQEDKEEEEEEEEEEEEVLNGRAVAIGYGSGLLLGLAIAQVIASYKLIIQAIRGSEKPPGPSIFSPLIKKAEDLAFLENEEALASLEIIGRGGCGEVFKAELPGSNGKIIAVKKVIQPPKDADELTDEDSKFLNKKMRQIRSEINTVGHIRHRNLLPLLAHVSRPECHYLVYEYMEKGSLQDILTDVQAGNQELMWPARHKIALGIAAGLEYLHMDHNPRIIHRDLKPANVLLDDDMEARISDFGLAKAMPDAVTHITTSHVAGTVGYIAPEFYQTHKFTDKCDIYSFGVILGILVIGKLPSDEFFQHTDEMSLIKWMRNIITSENPSLAIDPKLMDQGFDEQMLLVLKIACYCTLDDPKQRPNSKDVRTMLSQIKHSDYKDHDGDYKDHDLDAAAADYKDDDDK
# modifications: Fusion protein
# B4: AtRLP23-OsXA21-3×FLAG: AtRLP23 apoplastic and eJM domains, OsXA21 TM and cytoplasmic domains, 3×FLAG; SEQ ID NO: 21, 22 (protein)
# chain: MSKALLHLHFLSLFLLCCVCHSSIFTLNFHFTGIVACRPHQIQAFTKFTNEFDTRGCNNSDTFNGVWCDNSTGAVAVLQLRKCLSGTLKSNSSLFGFHQLRYVDLQNNNLTSSSLPSGFGNLKRLEGLFLSSNGFLGQVPSSFSNLTMLAQLDLSYNKLTGSFPLVRGLRKLIVLDLSYNHFSGTLNPNSSLFELHQLRYLNLAFNNFSSSLPSKFGNLHRLENLILSSNGFSGQVPSTISNLTRLTKLYLDQNKLTSSFPLVQNLTNLYELDLSYNKFFGVIPSSLLTLPFLAHLALRENNLAGSVEVSNSSTSSRLEIMYLGSNHFEGQILEPISKLINLKHLDLSFLNTSYPIDLKLFSSLKSLRSLDLSGNSISSASLSSDSYIPLTLEMLTLRHCDINEFPNILKTLKELVYIDISNNRMKGKIPEWLWSLPLLQSVTLGNNYFTGFQGSAEILVNSSVLLLYLDSNNFEGALPDLPLSIKGFGVASNSFTSEIPLSICNRSSLAAIDLSYNNFTGPIPPCLRNLELVYLRNNNLEGSIPDALCDGASLRTLDVSHNRLTGKLPRSFVNCSSLKFLSVINNRIEDTFPFWLKALPNLQVLTLRSNRFYGPISPPHQGPLGFPELRIFEISDNKFTGSLPPNYFVNWKASSRTMNQDGGLYMVYEEKLFDEGGYGYTDALDLQYKGLHMEQAKALTSYAAIDFSGNRLEGQIPESIGLLKALIAVNISNNAFTGHIPLSMANLENLESLDMSRNQLSGTIPNGLGSISFLAYINVSHNQLTGEIPQGTQITGQSKSSFEGNAGLCGLPLKESCFGTGAPPMYHQKQEDKEEEEEEEEEEEEVLNGRFPVLPISVSLAAALAILSSLYLLITWHKRTKKGAPSRTSMKGHPLVSYSQLVKATDGFAPTNLLGSGSFGSVYKGKLNIQDHVAVKVLKLENPKALKSFTAECEALRNMRHRNLVKIVTICSSIDNRGNDFKAIVYDFMPNGSLEDWIHPETNDQADQRHLNLHRRVTILLDVACALDYLHRHGPEPVVHCDIKSSNVLLDSDMVAHVGDFGLARILVDGTSLIQQSTSSMGFIGTIGYAAPEYGVGLIASTHGDIYSYGILVLEIVTGKRPTDSTFRPDLGLRQYVELGLHGRVTDVVDTKLILDSENWLNSTNNSPCRRITECIVWLLRLGLSCSQELPSSRTPTGDIIDELNAIKQNLSGLFPVCEGGSLEFSDYKDHDGDYKDHDLDAAAADYKDDDDK
# modifications: Fusion protein
# Key:
# corn protoplasts [1] = assay: Calcium burst in transiently transfected corn protoplasts, R-GECO1.2 fluorescence reporter; type: cell-based, Zea mays; settings: Example 3, FIG. 4; 1 μM PpNLP20; 40 minutes; 384-well
# Excerpt: Following ligand (also known as elicitor) binding, PRRs are activated and induce a transient increase of cytosolic Ca^2+ concentration as part of a PTI response. […] In a high-throughput method, the kinetics of PRR-dependent transient variation of cytosolic Ca^2+ concentration can be measured with a fluorimeter or luminometer and in microplate formats of 96 or 384 wells.
# Fluorescence was monitored using a fluorimeter equipped with a 100 Hz xenon flash lamp with excitation at 556 nm and emission measured at 585 nm for 100 ms, every 22.6 seconds for 42 minutes.
# All of the AtRLP23 constructs have an operably linked 2×35S+Ω promoter construct (SEQ ID NO: 72) and an operably linked rbcS terminator (SEQ ID NO: 73)
# Fluorescence was monitored using a fluorimeter equipped with a 100 Hz xenon flash lamp with excitation at 556 nm and emission measured at 585 nm for 30 ms, every 20.2 seconds for 40 minutes. For each fluorescence measurement, the transient change in R-GECO1.2 fluorescence (ΔF) are calculated from background corrected intensity values as (F-Fo), where F represents the average fluorescence intensity of the a batch of protoplasts treated with elicitor, and Fo represents the average fluorescence intensity of the same batch of protoplasts treated with a control solution that lacks the elicitor but is otherwise identical or essentially identical in composition to the solution comprising the elicitor.
# corn protoplasts [2] = assay: Calcium burst in transiently transfected corn protoplasts, apoaequorin luminescence reporter
Molecule,responsiveness to PpNLP20 treatment compared to AtRLP23-3×FLAG (total transient increase of fluorescence) (corn protoplasts [1]),"Ca^2+ burst in response to all tested NLP peptides (corn protoplasts [2]; Example 6, FIG. 8, CgNLP24b, FgNLP24c, FvNLP24a, SmNLP24)","increase in Ca^2+ compared to control buffer treatment (corn protoplasts [2]; FIG. 8, all peptides tested)"
B1,increased responsiveness,,
B2,,Ca^2+ burst,statistically significant
B3,increased responsiveness,,
B4,increased responsiveness,,
